Laboratory results published in paper PMC9482650, “Quantitative fragmentomics allow affinity mapping of interactomes” (Nature Communications, 2022).

Assays:
Test in all cases: holdup assay
Set-up in all cases: key: below the threshold = too weak to quantify, mostly under pKd 3.1 to 4
Settings in all cases: plain residues with an end cap or a label only (N-terminal biotin on a linker: ado-ado)
[1] = biological target: T1, APBA2_1, Q99767
T1 sequence (Q99767 563-664, limits assumed, looked up): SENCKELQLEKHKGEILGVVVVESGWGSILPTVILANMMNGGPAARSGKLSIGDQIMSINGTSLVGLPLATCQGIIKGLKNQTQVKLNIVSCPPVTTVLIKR

[2] = biological target: T2, APBA3_1, O96018
T2 sequence (O96018 389-490, limits assumed, looked up): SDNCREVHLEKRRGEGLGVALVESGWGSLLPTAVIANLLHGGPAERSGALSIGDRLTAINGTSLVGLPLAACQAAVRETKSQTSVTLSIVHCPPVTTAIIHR

[3] = biological target: ARHGEF12, Q9NZN5-2
[4] = biological target: CASK, O14936
[5] = biological target: T3, DFNB31_2, Q9P202
T3 sequence (Q9P202 274-371, limits assumed, looked up): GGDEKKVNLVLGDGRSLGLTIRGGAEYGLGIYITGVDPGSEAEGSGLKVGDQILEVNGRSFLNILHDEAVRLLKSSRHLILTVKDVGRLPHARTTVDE

[6] = biological target: DLG2_2, Q15700
[7] = biological target: T4, DVL3, Q92997
T4 sequence (Q92997 244-331, limits assumed, looked up): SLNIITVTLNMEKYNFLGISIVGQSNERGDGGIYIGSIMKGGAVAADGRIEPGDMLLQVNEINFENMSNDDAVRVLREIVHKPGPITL

[8] = biological target: GORASP1, Q9BQQ3
[9] = biological target: GRIP2_3, Q9C0E4
[10] = biological target: GRIP2_7, Q9C0E4
[11] = biological target: T5, HTRA3, P83110
T5 sequence (P83110 354-453, limits assumed, looked up): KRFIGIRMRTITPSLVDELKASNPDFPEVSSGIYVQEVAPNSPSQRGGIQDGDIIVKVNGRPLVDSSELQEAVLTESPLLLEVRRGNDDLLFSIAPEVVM

[12] = biological target: LIMK2, P53671
[13] = biological target: MAGI1_2, Q96QZ7
[14] = biological target: T6, NHERF3_3, Q5T2W1
T6 sequence (Q5T2W1 238-333, limits assumed, looked up): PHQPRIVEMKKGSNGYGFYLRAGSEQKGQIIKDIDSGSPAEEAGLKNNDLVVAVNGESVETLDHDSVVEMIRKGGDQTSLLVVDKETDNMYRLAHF

[15] = biological target: NHERF4_2, Q86UT5
[16] = biological target: T7, PARD3B_1, Q8TEW8
T7 sequence (Q8TEW8 196-299, limits assumed, looked up): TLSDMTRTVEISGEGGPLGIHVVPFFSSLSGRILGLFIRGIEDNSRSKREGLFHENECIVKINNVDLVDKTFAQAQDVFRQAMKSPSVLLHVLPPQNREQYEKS

[17] = biological target: PARD3_3, Q8TEW0
[18] = biological target: T8, PDZD7_3, Q9H5P4
T8 sequence (Q9H5P4 857-944, limits assumed, looked up): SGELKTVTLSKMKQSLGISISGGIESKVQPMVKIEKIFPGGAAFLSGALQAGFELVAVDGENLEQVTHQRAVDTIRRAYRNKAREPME

[19] = biological target: SCRIB_1, Q14160
[20] = biological target: SCRIB_3, Q14160
[21] = biological target: T9, SIPA1L2, Q9P2F8
T9 sequence (Q9P2F8 945-1036, limits assumed, looked up): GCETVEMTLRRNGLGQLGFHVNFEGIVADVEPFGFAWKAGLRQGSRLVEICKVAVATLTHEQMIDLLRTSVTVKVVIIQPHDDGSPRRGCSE

[22] = biological target: T10, SNTA1, Q13424
T10 sequence (Q13424 82-180, limits assumed, looked up): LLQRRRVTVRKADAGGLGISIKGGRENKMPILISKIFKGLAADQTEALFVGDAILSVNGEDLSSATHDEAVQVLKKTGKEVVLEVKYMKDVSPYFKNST

[23] = biological target: T11, SNTG1, Q9NSN8
T11 sequence (Q9NSN8 52-150, limits assumed, looked up): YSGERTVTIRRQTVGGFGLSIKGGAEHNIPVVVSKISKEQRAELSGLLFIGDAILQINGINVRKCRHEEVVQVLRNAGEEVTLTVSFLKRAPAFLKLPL

[24] = biological target: TJP1_2, Q07157
[25] = biological target: TJP2_1, Q9UDY2
[26] = biological target: T12, TJP3_3, O95049
T12 sequence (O95049 375-456, limits assumed, looked up): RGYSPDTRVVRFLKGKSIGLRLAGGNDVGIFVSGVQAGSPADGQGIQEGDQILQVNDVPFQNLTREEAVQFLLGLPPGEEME

Chain of ARHGEF12, Q9NZN5-2 (Q9NZN5 other isoform, or with tags, fused parts or gaps): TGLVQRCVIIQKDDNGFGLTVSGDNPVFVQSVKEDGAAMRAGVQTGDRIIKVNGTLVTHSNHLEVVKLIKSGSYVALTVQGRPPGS
Chain of MAGI1_2, Q96QZ7 (Q96QZ7 456-580): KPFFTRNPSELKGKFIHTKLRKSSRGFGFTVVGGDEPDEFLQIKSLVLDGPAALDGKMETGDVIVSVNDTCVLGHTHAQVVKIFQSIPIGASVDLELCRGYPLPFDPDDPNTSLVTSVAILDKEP
Chain of GRIP2_7, Q9C0E4 (Q9C0E4 934-1023): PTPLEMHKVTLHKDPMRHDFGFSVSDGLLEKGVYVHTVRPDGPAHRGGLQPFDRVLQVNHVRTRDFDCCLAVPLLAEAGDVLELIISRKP
Chain of CASK, O14936 (O14936 487-570): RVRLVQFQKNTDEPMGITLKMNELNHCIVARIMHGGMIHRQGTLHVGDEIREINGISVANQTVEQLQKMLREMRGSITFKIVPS
Chain of SCRIB_3, Q14160 (Q14160 999-1103): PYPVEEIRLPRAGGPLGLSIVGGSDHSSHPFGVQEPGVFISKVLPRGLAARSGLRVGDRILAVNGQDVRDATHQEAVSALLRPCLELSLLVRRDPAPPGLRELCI
Chain of TJP1_2, Q07157 (Q07157 181-274): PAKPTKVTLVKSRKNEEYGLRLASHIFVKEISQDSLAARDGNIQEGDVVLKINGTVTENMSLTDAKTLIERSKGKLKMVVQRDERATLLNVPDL
Chain of NHERF4_2, Q86UT5 (Q86UT5 220-308): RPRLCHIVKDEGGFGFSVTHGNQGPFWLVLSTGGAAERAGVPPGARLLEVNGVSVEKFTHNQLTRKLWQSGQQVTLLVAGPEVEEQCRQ
Chain of PARD3_3, Q8TEW0 (Q8TEW0 582-685): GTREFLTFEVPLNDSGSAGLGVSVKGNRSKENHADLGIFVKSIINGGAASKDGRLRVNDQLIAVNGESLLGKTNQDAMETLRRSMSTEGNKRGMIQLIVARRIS
Chain of SCRIB_1, Q14160 (Q14160 718-814): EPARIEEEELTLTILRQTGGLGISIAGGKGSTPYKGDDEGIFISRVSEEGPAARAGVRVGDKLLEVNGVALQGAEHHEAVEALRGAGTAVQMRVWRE
Chain of DLG2_2, Q15700 (Q15700 189-283): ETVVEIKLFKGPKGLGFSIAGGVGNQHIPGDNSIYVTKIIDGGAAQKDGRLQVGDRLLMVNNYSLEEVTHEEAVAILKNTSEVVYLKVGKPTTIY
Chain of TJP2_1, Q9UDY2 (Q9UDY2 24-128): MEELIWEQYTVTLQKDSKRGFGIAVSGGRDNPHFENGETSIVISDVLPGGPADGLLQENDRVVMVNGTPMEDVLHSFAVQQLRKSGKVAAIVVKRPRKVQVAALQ
Chain of LIMK2, P53671 (P53671 143-248): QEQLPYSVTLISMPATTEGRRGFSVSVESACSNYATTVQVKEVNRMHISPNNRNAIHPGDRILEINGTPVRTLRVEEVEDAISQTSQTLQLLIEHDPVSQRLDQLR
Chain of GRIP2_3, Q9C0E4 (Q9C0E4 238-339): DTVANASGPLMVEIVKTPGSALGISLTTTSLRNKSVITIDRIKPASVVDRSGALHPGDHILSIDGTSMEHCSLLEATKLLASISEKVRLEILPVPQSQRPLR
Chain of GORASP1, Q9BQQ3 (Q9BQQ3 1-208): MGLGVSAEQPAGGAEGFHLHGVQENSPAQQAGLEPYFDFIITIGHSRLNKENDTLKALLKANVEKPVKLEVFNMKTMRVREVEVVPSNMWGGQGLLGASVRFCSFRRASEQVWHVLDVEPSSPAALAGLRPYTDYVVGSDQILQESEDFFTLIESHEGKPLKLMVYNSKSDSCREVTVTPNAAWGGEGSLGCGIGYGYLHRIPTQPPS

For VDSTVKVWTC [TRAF7, Q6Q0C0], the pKd [1] was “below the threshold”, the pKd [2] was “below the threshold” and the pKd [3] was 3.5. For the same binder, the pKd [4] was 3.75, the pKd [5] was “below the threshold” and the pKd [6] was 3.72. For the same binder, the pKd [7] was 3.85, the pKd [8] was 4.15 and the pKd [9] was “below the threshold”. For the same binder, the pKd [10] was 4.35, the pKd [11] was 5.13 and the pKd [12] was “below the threshold”. For the same binder, the pKd [13] was “below the threshold”, the pKd [14] was 3.48 and the pKd [15] was “below the threshold”. For the same binder, the pKd [16] was 4.42, the pKd [17] was 4.66 and the pKd [18] was “below the threshold”. For the same binder, the pKd [19] was 3.66, the pKd [20] was “below the threshold” and the pKd [21] was “below the threshold”. The pKd [22] was “below the threshold”, the pKd [23] was 3.61 and the pKd [24] was “below the threshold”. For the same binder, the pKd [25] was “below the threshold” and the pKd [26] was “below the threshold”.

TPPAAKKSRI [BAZ1A, Q9NRL2] was tested, and the pKd [1] was “below the threshold”, the pKd [2] was “below the threshold” and the pKd [3] was 3.66. For the same binder, the pKd [4] was “below the threshold”, the pKd [5] was “below the threshold” and the pKd [6] was 3.65. The pKd [7] was “below the threshold”, the pKd [8] was “below the threshold” and the pKd [9] was “below the threshold”. For the same binder, the pKd [10] was “below the threshold”, the pKd [11] was “below the threshold” and the pKd [12] was “below the threshold”. For the same binder, the pKd [13] was “below the threshold”, the pKd [14] was “below the threshold” and the pKd [15] was “below the threshold”. The pKd [16] was “below the threshold”, the pKd [17] was “below the threshold” and the pKd [18] was 4.52. For the same binder, the pKd [19] was “below the threshold”, the pKd [20] was “below the threshold” and the pKd [21] was “below the threshold”. For the same binder, the pKd [22] was “below the threshold”, the pKd [23] was “below the threshold” and the pKd [24] was “below the threshold”. The pKd [25] was “below the threshold” and the pKd [26] was “below the threshold”.

For LSEFKAMDSI [CTNNA1, P35221], the pKd [1] was “below the threshold”, the pKd [2] was “below the threshold” and the pKd [3] was “below the threshold”. The pKd [4] was “below the threshold”, the pKd [5] was “below the threshold” and the pKd [6] was “below the threshold”. For the same binder, the pKd [7] was “below the threshold”, the pKd [8] was “below the threshold” and the pKd [9] was “below the threshold”. The pKd [10] was “below the threshold”, the pKd [11] was “below the threshold” and the pKd [12] was “below the threshold”. For the same binder, the pKd [13] was “below the threshold”, the pKd [14] was “below the threshold” and the pKd [15] was “below the threshold”. For the same binder, the pKd [16] was “below the threshold”, the pKd [17] was “below the threshold” and the pKd [18] was “below the threshold”. The pKd [19] was “below the threshold”, the pKd [20] was “below the threshold” and the pKd [21] was “below the threshold”. For the same binder, the pKd [22] was “below the threshold”, the pKd [23] was “below the threshold” and the pKd [24] was “below the threshold”. For the same binder, the pKd [25] was “below the threshold” and the pKd [26] was “below the threshold”.

With VNKSKLLTDV [KCNA1, Q09470] the pKd [1] was “below the threshold”, the pKd [2] was “below the threshold” and the pKd [3] was 4.56. The pKd [4] was “below the threshold”, the pKd [5] was “below the threshold” and the pKd [6] was 4.29. The pKd [7] was “below the threshold”, the pKd [8] was “below the threshold” and the pKd [9] was “below the threshold”. For the same binder, the pKd [10] was “below the threshold”, the pKd [11] was “below the threshold” and the pKd [12] was “below the threshold”. The pKd [13] was 4.19, the pKd [14] was “below the threshold” and the pKd [15] was “below the threshold”. The pKd [16] was “below the threshold”, the pKd [17] was “below the threshold” and the pKd [18] was 4.36. The pKd [19] was 3.87, the pKd [20] was 3.55 and the pKd [21] was “below the threshold”. For the same binder, the pKd [22] was “below the threshold”, the pKd [23] was “below the threshold” and the pKd [24] was “below the threshold”. The pKd [25] was “below the threshold” and the pKd [26] was “below the threshold”.
